Data: the RNAGym collection of RNA variant scans (doi:10.1073/pnas.2313332121)
Variants at the floor of the assay were thinned out.

B1: TPR 5TU (parent)
chain: GGAUCUUCUCGAUCUAACAAAAAAGACAAAUCUGCCACAAAGCUUGAGAGCAUCUUCGGAUGCAGAGGCGGCAGCCUUCGGUGGCGCGAUAGCGCCAACGUUCUCAACUAUGACACGCAAAACGCGUGCUCCGUUGAAUGGAGUUUAUCAUG

Variants of: B1
Test: polymerase ribozyme fitness, log enrichment relative to wild type (log ratio); higher = more active; in vitro selection for triplet polymerase activity
Summary of the method: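 After PCR construction and transcription, each subunit's mutant library from a heterodimeric triplet polymerase ribozyme was annealed with a biotinylated primer, the partner subunit and triplets. Incubation was frozen, at −7 °C, and extended constructs were gel-excised, bound to streptavidin beads and amplified by RT-PCR, in one selection round done in triplicate. Fitness is the logarithm of a genotype's enrichment divided by that of the wild type, from inverse-variance-weighted replicate averages of Illumina-sequenced inputs and outputs. The base of the logarithm is 2, and genotypes needed ≥10 input reads and ≥1 read per output.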

Compared with A12U C38A G59U C87A A97U, G11C G92U is higher in “polymerase ribozyme fitness (log ratio)” value: at most -4.2 for the first, -1.84 for the second.

Compared with A12U A24U G81U G84A, G11U A60C C76U is lower in “polymerase ribozyme fitness (log ratio)” value: 0.337 for the first, -3.53 for the second.

Compared with A12G A19G A41C C95U G126A, A12G A24G A37C C87G A120G U139G is lower in “polymerase ribozyme fitness (log ratio)” value: -1.94 for the first, -4.13 for the second.

A12U A29G A37U A47U U55A G84U A89G A120C G140C U144G and C10U G46C G124A cannot be ordered by “polymerase ribozyme fitness (log ratio)” value: at most -4.2 for the first, at most -4.2 for the second.

Going from G11A U61A G67C C87G G141U to G11A G59C, the “polymerase ribozyme fitness (log ratio)” value rises from at most -4.2 to -0.989.

Compared with C10U A29U A47U G84U C103A C116G U145G G152U, G11A C96G is higher in “polymerase ribozyme fitness (log ratio)” value: at most -4.2 for the first, -1.49 for the second.

G11C A21G A28U C38U C87A G133C U144G A150C and G11A U45A G46C G80C C87A cannot be ordered by “polymerase ribozyme fitness (log ratio)” value: at most -4.2 for the first, at most -4.2 for the second.

First: A12C A41U C75U A122C C125U
Second: G11U A19U G81U C95U
The “polymerase ribozyme fitness (log ratio)” value of the first is lower: -3.38 for the first, -1.81 for the second.

A12C C35G U56G G80A G81C G100C C116U U135C and G11U G50C A73G cannot be ordered by “polymerase ribozyme fitness (log ratio)” value: at most -4.2 for the first, at most -4.2 for the second.

Going from A12U G50A C85A C87U G133C to C10U C125U, the “polymerase ribozyme fitness (log ratio)” value rises from at most -4.2 to -3.3.

C10U U15C A39U G48C C76A C85G G88A U90G G140U and A12U A21C G80C G81A C93G G140U cannot be ordered by “polymerase ribozyme fitness (log ratio)” value: at most -4.2 for the first, at most -4.2 for the second.

A12C U61A G84U A97U U145C and C10U C14G U15G A29C C38U G58A A91G U127G C149U cannot be ordered by “polymerase ribozyme fitness (log ratio)” value: at most -4.2 for the first, at most -4.2 for the second.

First: G11U G58C G84U A97U
Second: G11U C32A C54U C57U G92C U148G U151G
The “polymerase ribozyme fitness (log ratio)” value of the first is higher: -2.86 for the first, at most -4.2 for the second.

First: G11C U33A U44C C76A A89U C95U A122C C123U G133A
Second: A12G C95U C105G A106U
The “polymerase ribozyme fitness (log ratio)” value of the first is lower: at most -4.2 for the first, -4.1 for the second.

G11C A19C G70U G86A A89U A106G G136C and G11U G88C cannot be ordered by “polymerase ribozyme fitness (log ratio)” value: at most -4.2 for the first, at most -4.2 for the second.

First: G11U A26G C54U A142C
Second: A12G C85A C118A
The “polymerase ribozyme fitness (log ratio)” value of the first is lower: at most -4.2 for the first, -0.759 for the second.

A12C A41G C87A A89C U144A and C10U G67C cannot be ordered by “polymerase ribozyme fitness (log ratio)” value: at most -4.2 for the first, at most -4.2 for the second.

First: U13A C85U G136U
Second: A12G U13C C14A A41C A110U A119G G133A G140U U145G
The “polymerase ribozyme fitness (log ratio)” value of the first is higher: -3.3 for the first, at most -4.2 for the second.

Compared with A12U A47U C95U A115G, A12C U102C A138C is lower in “polymerase ribozyme fitness (log ratio)” value: -2.31 for the first, at most -4.2 for the second.

Compared with A12U A28G U55A C63U C96G G100A, G11A A20C A21U A52G U55C G94C C116U is higher in “polymerase ribozyme fitness (log ratio)” value: at most -4.2 for the first, -4.05 for the second.

First: C10U C96U
Second: C10U C96G
The “polymerase ribozyme fitness (log ratio)” value of the first is higher: -2.51 for the first, -3.82 for the second.

A12U A39U U55A G67U G86U C103U and A12C C57U C72A C93G U111G U146G cannot be ordered by “polymerase ribozyme fitness (log ratio)” value: at most -4.2 for the first, at most -4.2 for the second.

Compared with A12C C85U, U13A A23U U31A A37C G84U C125A G140A G152U is lower in “polymerase ribozyme fitness (log ratio)” value: -1.44 for the first, at most -4.2 for the second.

Compared with A12U G34U G50A A52G G67C C85U C96U G141A U148G, A12G C54G G80A U144A is higher in “polymerase ribozyme fitness (log ratio)” value: at most -4.2 for the first, -3.53 for the second.

First: A12U A19U A37U U55A
Second: A12C A37C G50A C79G A98G
The “polymerase ribozyme fitness (log ratio)” value of the first is higher: -3.16 for the first, at most -4.2 for the second.

G11C A26U C69U and A12C A30C A60G C75G G86U U90G A97C cannot be ordered by “polymerase ribozyme fitness (log ratio)” value: at most -4.2 for the first, at most -4.2 for the second.

Going from U13A A17U U45C G50A G83C C87U U104G G140A to A12G U55A G84A G117U, the “polymerase ribozyme fitness (log ratio)” value rises from at most -4.2 to -0.697.

Compared with G11C C93A C125U, A12U A21G C95U C99A G126A C132U is higher in “polymerase ribozyme fitness (log ratio)” value: at most -4.2 for the first, -3.58 for the second.

G11C A30G U53A G58A C95A and C10U A20U U44A C79U C87A cannot be ordered by “polymerase ribozyme fitness (log ratio)” value: at most -4.2 for the first, at most -4.2 for the second.

U13A C32A G42A C75A C76U C87G A106C A138U G141C and U13A C54A A91C cannot be ordered by “polymerase ribozyme fitness (log ratio)” value: at most -4.2 for the first, at most -4.2 for the second.

Compared with A12U G84A G88C A119C G140A, A12G A23G U31A C35U U56A is higher in “polymerase ribozyme fitness (log ratio)” value: at most -4.2 for the first, -3.98 for the second.

C10U U15G G58U A73G G83A A91C C95U U134C and A12G A23U U56A C93G cannot be ordered by “polymerase ribozyme fitness (log ratio)” value: at most -4.2 for the first, at most -4.2 for the second.

Compared with G11U U31A A60G C93A, C10U C32G A39U U55A C95G C96A C149U is lower in “polymerase ribozyme fitness (log ratio)” value: -3.94 for the first, at most -4.2 for the second.

A12C U15C C35U G58A U90C G126U and A12C A29C G81U C87A cannot be ordered by “polymerase ribozyme fitness (log ratio)” value: at most -4.2 for the first, at most -4.2 for the second.

Compared with G11A A20U C54A C87G G100C U145A, U13A A47G U82G C95G is higher in “polymerase ribozyme fitness (log ratio)” value: at most -4.2 for the first, -3.73 for the second.

First: A12G C75G A119C
Second: G11A C105U
The “polymerase ribozyme fitness (log ratio)” value of the first is lower: -3.34 for the first, -1.12 for the second.

Compared with G11U C85A G86U U134G A150G, G11U G94A G133C is higher in “polymerase ribozyme fitness (log ratio)” value: at most -4.2 for the first, -2.79 for the second.

C10U A29U U53A C79G C85U C95G A107U and A12U C57U C85G A115C G133U U139C cannot be ordered by “polymerase ribozyme fitness (log ratio)” value: at most -4.2 for the first, at most -4.2 for the second.

A12C A66C and C10U G48A G86A G88A C95A cannot be ordered by “polymerase ribozyme fitness (log ratio)” value: at most -4.2 for the first, at most -4.2 for the second.

First: A12G A41G
Second: G11A A26C U33G C129A
The “polymerase ribozyme fitness (log ratio)” value of the first is higher: 0.519 for the first, at most -4.2 for the second.

First: A12G A37C G86A C95A
Second: A12U G84U G141C
The “polymerase ribozyme fitness (log ratio)” value of the first is lower: at most -4.2 for the first, -2.48 for the second.

Compared with A12C U56A G88U, A12C C105G is higher in “polymerase ribozyme fitness (log ratio)” value: -3.41 for the first, -2.6 for the second.
